T1: Gal80 (UniProt P04387 1-435, limits assumed)
T1 construct: Cy3/Cy5 labelled on arrays, immobilised for SPR and ELISA
T1 sequence (looked up): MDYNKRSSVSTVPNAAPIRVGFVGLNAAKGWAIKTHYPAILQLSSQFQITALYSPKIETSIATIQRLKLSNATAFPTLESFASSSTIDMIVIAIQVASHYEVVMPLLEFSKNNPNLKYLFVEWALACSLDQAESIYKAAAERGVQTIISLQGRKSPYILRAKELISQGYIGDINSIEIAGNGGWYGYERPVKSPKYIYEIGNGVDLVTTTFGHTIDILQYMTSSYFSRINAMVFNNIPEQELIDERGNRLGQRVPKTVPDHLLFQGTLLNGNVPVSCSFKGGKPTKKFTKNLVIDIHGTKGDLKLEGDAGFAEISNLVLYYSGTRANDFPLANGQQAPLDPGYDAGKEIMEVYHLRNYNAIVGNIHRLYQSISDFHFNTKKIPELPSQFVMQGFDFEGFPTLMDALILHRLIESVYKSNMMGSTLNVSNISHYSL


biological target: T1, Gal80; experiment: light-directed peptide array, 25 µM labelled GAL80 with 1 mg/mL E. coli lysate; relative to template BP2;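 note: array read-out by fluorescence scanning, library of 10,000 peptides varied at four positions with ten residue choices, each feature present in triplicate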
Excerpt: The chemically diverse set of 10 amino acids {I,D,W,L,E,G,T,S,K,R} were selected as the amino acids to substitute into the four variable positions for a total of 10,000 unique variant peptides. Three replicates were included in the array to produce a total of 30,000 array features. […] The resulting array was imaged using a commercial fluorescence scanner.

Fold Enhancement | Binder
11.1 fold | EGEITEGKKSKLGSC (Synthesised in situ on a light-directed array) [BP2 variant EGEITEGKKSKLGSC]
9.7 fold | EGEKTEGKKSKEGSC (Synthesised in situ on a light-directed array) [BP2 variant EGEKTEGKKSKEGSC]
10.8 fold | EGEDTEGKKSKGGSC (Synthesised in situ on a light-directed array) [BP2 variant EGEDTEGKKSKGGSC]
11.3 fold | EGEITEGKKSKIGSC (Synthesised in situ on a light-directed array) [BP2 variant EGEITEGKKSKIGSC]
10.5 fold | EGEITEGKKSKRGSC (Synthesised in situ on a light-directed array) [BP2 variant EGEITEGKKSKRGSC]
10.6 fold | EGEITEGKKSKTGSC (Synthesised in situ on a light-directed array) [BP2 variant EGEITEGKKSKTGSC]
10.5 fold | EGEWTEGKKSKTGSC (Synthesised in situ on a light-directed array) [BP2 variant EGEWTEGKKSKTGSC]
9.91 fold | EGEITEGKKSKSGSC (Synthesised in situ on a light-directed array) [BP2 variant EGEITEGKKSKSGSC]
10.4 fold | EGEWTEGKKSKIGSC (Synthesised in situ on a light-directed array) [BP2 variant EGEWTEGKKSKIGSC]
10.4 fold | EGEDTEGKKSKLGSC (Synthesised in situ on a light-directed array) [BP2 variant EGEDTEGKKSKLGSC]
11.1 fold | EGEWTEGKKSKGGSC (Synthesised in situ on a light-directed array) [BP2 variant EGEWTEGKKSKGGSC]
10.9 fold | EGEITEGKKSKEGSC (Synthesised in situ on a light-directed array) [BP2 variant EGEITEGKKSKEGSC]
10.2 fold | EGEDTEGKKSKTGSC (Synthesised in situ on a light-directed array) [BP2 variant EGEDTEGKKSKTGSC]
11 fold | EGEWTEGKKSKRGSC (Synthesised in situ on a light-directed array) [BP2 variant EGEWTEGKKSKRGSC]
10.4 fold | EGEDTEGKKSKIGSC (Synthesised in situ on a light-directed array) [BP2 variant EGEDTEGKKSKIGSC]
10.4 fold | EGEDTEGKKSKRGSC (Synthesised in situ on a light-directed array) [BP2 variant EGEDTEGKKSKRGSC]
10.8 fold | EGEITEGKKSKGGSC (Synthesised in situ on a light-directed array) [BP2 variant EGEITEGKKSKGGSC]
10.1 fold | EGEDTEGKKSKEGSC (Synthesised in situ on a light-directed array) [BP2 variant EGEDTEGKKSKEGSC]
10.7 fold | EGEWTEGKKSKEGSC (Synthesised in situ on a light-directed array) [BP2 variant EGEWTEGKKSKEGSC]
9.24 fold | EGEKTEGKKSKGGSC (Synthesised in situ on a light-directed array) [BP2 variant EGEKTEGKKSKGGSC]
8.5 fold | EGEKTEGKKSKTGSC (Synthesised in situ on a light-directed array) [BP2 variant EGEKTEGKKSKTGSC]
10.7 fold | EGEWTEGKKSKLGSC (Synthesised in situ on a light-directed array) [BP2 variant EGEWTEGKKSKLGSC]
9.81 fold | EGEKTEGKKSKLGSC (Synthesised in situ on a light-directed array) [BP2 variant EGEKTEGKKSKLGSC]
9.87 fold | EGEITEGKGSKKGSC (Synthesised in situ on a light-directed array) [BP2 variant EGEITEGKGSKKGSC]
9.72 fold | EGEITEGKLSKKGSC [BP2 variant EGEITEGKLSKKGSC]
